According to IntAct's records for PubMed 17167421:

B1: Synaptotagmin-2 (Rattus norvegicus (Rat)), P29101 (parent)
chain: MRNIFKRNQEPIVAPATTTATMPLAPAAPADNSTESTGTGESQEDMFAKLKDKFFNEINKIPLPPWALIAMAVVAGLLLLTCCFCICKKCCCKKKKNKKEKGKGMKNAMNMKDMKGGQDDDDAETGLTEGEGEGEEEKEPENLGKLQFSLDYDFQANQLTVGVLQAAELPALDMGGTSDPYVKVFLLPDKKKKYETKVHRKTLNPAFNETFTFKVPYQELGGKTLVMAIYDFDRFSKHDIIGEVKVPMNTVDLGQPIEEWRDLQGGEKEEPEKLGDICTSLRYVPTAGKLTVCILEAKNLKKMDVGGLSDPYVKIHLMQNGKRLKKKKTTVKKKTLNPYFNESFSFEIPFEQIQKVQVVVTVLDYDKLGKNEAIGKIFVGSNATGTELRHWSDMLANPRRPIAQWHSLKPEEEVDALLGKNK

Variants of: B1
Settings: with bxb_clobo botB

Row | Variant | effect of a mutation on the interaction
1 | F47A | disrupting interaction strength
2 | F55A | disrupting interaction strength
3 | L50A | decreasing interaction strength
4 | E57K | disrupting interaction strength
5 | F54A | disrupting interaction strength
